# Biological target: Omicron BA.1 spike trimer (SARS-CoV-2 Omicron BA.1 (B.1.1.529), N440K | G446S)
# Test: cryo-EM structure
# Conditions: both partners purified
binder,measurement,value
"MB.02 Fab (Fab, V domains shown) VH: EVQLVQSGAEVKKPGESLKISCKGSGFSFTSYWIGWVRQMPGKGLEWMGIIYPGDSDTRYSPSFQGQVTISADKSISTAYLQWSSLKASDTAMYYCARGGYEDVFDIWGQGTMVTVSS VL: not shown",stoichiometry N,3 Fabs per S trimer

# Source: article PMC10387464 (Signal Transduction and Targeted Therapy, 2023)
